Experiments:
[1] = target: Methanocaldococcus jannaschii CobT (NaMN:DMB phosphoribosyltransferase) (Methanocaldococcus jannaschii); assay: AUC
[2] = target: T1, MjCobT (Methanocaldococcus jannaschii, UniProt Q58993); assay: isothermal titration calorimetry; assay type: binding
T1 sequence (Q58993 1-350): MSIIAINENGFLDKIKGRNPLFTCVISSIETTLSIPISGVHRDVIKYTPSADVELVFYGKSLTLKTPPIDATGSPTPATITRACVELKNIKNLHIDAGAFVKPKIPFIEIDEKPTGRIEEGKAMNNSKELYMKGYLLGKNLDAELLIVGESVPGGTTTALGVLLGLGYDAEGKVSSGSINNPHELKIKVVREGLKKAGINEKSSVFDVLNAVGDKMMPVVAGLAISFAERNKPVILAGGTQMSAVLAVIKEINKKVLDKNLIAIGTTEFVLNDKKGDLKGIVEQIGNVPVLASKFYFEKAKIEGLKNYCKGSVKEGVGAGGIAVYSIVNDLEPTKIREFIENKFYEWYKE

[3] = target: T1, MjCobT; assay: product formation by purified enzyme from NaMN and [[…]-14C]-DMB, TLC; assay type: biochemical

“Methanocaldococcus jannaschii CobT (NaMN:DMB phosphoribosyltransferase) (enzyme)” showed a percent of the c(s) distribution in the dimer species [1] of 81.3% and a stoichiometry N [1] of 2.
For O=C([O-])c1ccc[n+]([C@@H]2O[C@H](COP(=O)(O)O)[C@@H](O)[C@H]2O)c1 [NaMN], the Kd [2] was 3.2 µM.
In the case of Cc1cc2ncn([C@H]3O[C@H](COP(=O)(O)O)[C@@H](O)[C@H]3O)c2cc1C [α-RP], the “product formation by purified enzyme from NaMN and [2-14C]-DMB, TLC” value [3] is reported as “the amount of MjCobT-generated α-RP is displayed as a function of time for each concentration of NaMN tested”.

Reference: publication PMC6380956 (Biochemistry, 2019)
